Data from paper PMC6446905 (Science (New York, N.Y.), 2018).

B1: TAF9 (natural protein, human (endogenous in HeLa), UniProt Q16594 1-264, looked up)
chain: MESGKTASPKSMPKDAQMMAQILKDMGITEYEPRVINQMLEFAFRYVTTILDDAKIYSSHAKKATVDADDVRLAIQCRADQSFTSPPPRDFLLDIARQRNQTPLPLIKPYSGPRLPPDRYCLTAPNYRLKSLQKKASTSAGRITVPRLSVGSVTSRPSTPTLGTPTPQTMSVSTKVGTPMSLTGQRFTVQMPTSQSPAVKASIPATSAVQNVLINPSLIGSKNILITTNMMSSQNTANESSNALKRKREDDDDDDDDDDDYDNL
B2: TAF12 (natural protein, human (endogenous in HeLa), UniProt Q16514 1-161, looked up)
chain: MNQFGPSALINLSNFSSIKPEPASTPPQGSMANSTAVVKIPGTPGAGGRLSPENNQVLTKKKLQDLVREVDPNEQLDEDVEEMLLQIADDFIESVVTAACQLARHRKSSTLEVKDVQLHLERQWNMWIPGFGSEEIRPYKKACTTEAHKQRMALIRKTTKK
B3: TAF5 (natural protein, human (endogenous in HeLa), UniProt Q15542 1-800, looked up)
chain: MAALAEEQTEVAVKLEPEGPPTLLPPQAGDGAGEGSGGTTNNGPNGGGGNVAASSSTGGDGGTPKPTVAVSAAAPAGAAPVPAAAPDAGAPHDRQTLLAVLQFLRQSKLREAEEALRREAGLLEEAVAGSGAPGEVDSAGAEVTSALLSRVTASAPGPAAPDPPGTGASGATVVSGSASGPAAPGKVGSVAVEDQPDVSAVLSAYNQQGDPTMYEEYYSGLKHFIECSLDCHRAELSQLFYPLFVHMYLELVYNQHENEAKSFFEKFHGDQECYYQDDLRVLSSLTKKEHMKGNETMLDFRTSKFVLRISRDSYQLLKRHLQEKQNNQIWNIVQEHLYIDIFDGMPRSKQQIDAMVGSLAGEAKREANKSKVFFGLLKEPEIEVPLDDEDEEGENEEGKPKKKKPKKDSIGSKSKKQDPNAPPQNRIPLPELKDSDKLDKIMNMKETTKRVRLGPDCLPSICFYTFLNAYQGLTAVDVTDDSSLIAGGFADSTVRVWSVTPKKLRSVKQASDLSLIDKESDDVLERIMDEKTASELKILYGHSGPVYGASFSPDRNYLLSSSEDGTVRLWSLQTFTCLVGYKGHNYPVWDTQFSPYGYYFVSGGHDRVARLWATDHYQPLRIFAGHLADVNCTRFHPNSNYVATGSADRTVRLWDVLNGNCVRIFTGHKGPIHSLTFSPNGRFLATGATDGRVLLWDIGHGLMVGELKGHTDTVCSLRFSRDGEILASGSMDNTVRLWDAIKAFEDLETDDFTTATGHINLPENSQELLLGTYMTKSTPVVHLHFTRRNLVLAAGAYSPQ
B4: TAF6 (natural protein)
chain: not shown

Tests used:
Experiment in all cases: cryo-EM structure
TAF6 = molecular target: B4
Sequence of TAF6 (P49848 whole entry): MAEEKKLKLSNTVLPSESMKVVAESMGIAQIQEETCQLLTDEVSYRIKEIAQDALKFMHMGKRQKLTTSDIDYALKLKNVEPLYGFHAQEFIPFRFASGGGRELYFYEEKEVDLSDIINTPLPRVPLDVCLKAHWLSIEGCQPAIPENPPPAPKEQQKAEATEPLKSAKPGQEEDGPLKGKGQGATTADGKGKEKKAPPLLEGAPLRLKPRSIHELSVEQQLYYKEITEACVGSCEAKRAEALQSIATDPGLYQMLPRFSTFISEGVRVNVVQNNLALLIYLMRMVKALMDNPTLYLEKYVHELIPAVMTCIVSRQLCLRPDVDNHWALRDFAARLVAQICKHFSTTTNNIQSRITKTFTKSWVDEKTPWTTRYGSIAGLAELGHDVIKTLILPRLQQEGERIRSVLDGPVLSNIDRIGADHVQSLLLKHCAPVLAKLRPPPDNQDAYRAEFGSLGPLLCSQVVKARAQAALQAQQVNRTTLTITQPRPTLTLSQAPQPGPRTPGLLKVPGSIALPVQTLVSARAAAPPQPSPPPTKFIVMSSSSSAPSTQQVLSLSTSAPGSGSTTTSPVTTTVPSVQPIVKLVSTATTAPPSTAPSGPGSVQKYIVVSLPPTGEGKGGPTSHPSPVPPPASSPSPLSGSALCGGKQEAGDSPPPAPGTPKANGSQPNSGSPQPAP

TAF5 = molecular target: B3
TAF4 = molecular target: T1, TAF4 (human (endogenous in HeLa), UniProt O00268 1-1085)
T1 sequence (looked up): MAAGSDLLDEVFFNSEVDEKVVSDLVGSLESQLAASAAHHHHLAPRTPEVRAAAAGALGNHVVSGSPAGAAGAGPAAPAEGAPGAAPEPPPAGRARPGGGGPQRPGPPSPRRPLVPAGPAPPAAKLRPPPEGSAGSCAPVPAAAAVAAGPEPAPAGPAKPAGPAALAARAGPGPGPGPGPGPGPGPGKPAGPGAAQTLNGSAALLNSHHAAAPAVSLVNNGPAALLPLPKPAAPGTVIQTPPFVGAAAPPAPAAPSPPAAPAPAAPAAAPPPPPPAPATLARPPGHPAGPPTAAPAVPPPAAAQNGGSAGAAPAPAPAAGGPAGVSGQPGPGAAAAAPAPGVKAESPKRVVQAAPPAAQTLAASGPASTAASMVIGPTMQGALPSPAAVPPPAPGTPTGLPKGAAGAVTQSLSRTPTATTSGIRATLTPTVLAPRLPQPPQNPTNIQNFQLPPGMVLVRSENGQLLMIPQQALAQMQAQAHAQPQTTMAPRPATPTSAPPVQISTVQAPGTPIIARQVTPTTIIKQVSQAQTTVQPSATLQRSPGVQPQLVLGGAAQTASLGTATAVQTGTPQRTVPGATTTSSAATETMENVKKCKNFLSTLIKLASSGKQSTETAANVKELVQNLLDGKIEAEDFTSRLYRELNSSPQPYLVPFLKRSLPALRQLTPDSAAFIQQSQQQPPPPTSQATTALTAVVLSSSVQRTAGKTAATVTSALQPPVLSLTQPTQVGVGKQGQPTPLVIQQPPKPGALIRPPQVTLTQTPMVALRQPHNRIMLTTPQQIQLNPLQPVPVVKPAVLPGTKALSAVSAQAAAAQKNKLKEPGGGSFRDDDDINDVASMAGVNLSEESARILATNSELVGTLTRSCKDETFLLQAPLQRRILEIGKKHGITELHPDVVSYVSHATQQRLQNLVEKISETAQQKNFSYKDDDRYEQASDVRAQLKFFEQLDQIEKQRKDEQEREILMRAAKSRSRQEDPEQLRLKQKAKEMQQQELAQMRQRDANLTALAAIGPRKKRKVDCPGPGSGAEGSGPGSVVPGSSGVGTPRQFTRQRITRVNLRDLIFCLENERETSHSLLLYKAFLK

cryo-EM structure = molecular target: the molecule itself

## B1
TAF6
  binding result: binds
TAF5
  binding result: binds

## B2
TAF4
  binding result: binds

## B3
TAF4
  binding result: binds

## B4
cryo-EM structure
  stoichiometry N: 2
